Drawing on doi:10.1101/2020.03.30.016147, this text covers stoichiometry N for two substances.

One assay addresses ANG1-C4BP (human) (UniProt Q15389). Put plainly: non-reducing SDS-PAGE.
Assay [1] concerns the target C4BP-ANG1 (human) (UniProt P04003). The assay is described as follows: negative-stain electron microscopy.
For assay [2] the target is unchanged. The assay is described as follows: non-reducing SDS-PAGE.

Usually stoichiometry N stands for the number of molecules, sites or subunits per partner or assembly. As to “ANG1-C4BP (from UniProt Q15389-1 281-498; P04003 541-597) (ligand)”, in the assay with ANG1-C4BP (human), the stoichiometry N was 7.

Turning to “C4BP-ANG1 (from UniProt P04003 541-597; Q15389-1 281-498) (ligand)”, the stoichiometry N with C4BP-ANG1 (human) [1] and with C4BP-ANG1 (human) [2] was 7 each time.
